Data taken from patent US20100298202A1, “BRI POLYPEPTIDES AND REDUCING AB AGGREGATION” (MAYO FOUNDATION FOR MEDICAL EDUCATION AND RESEARCH, priority 2007, published 2010).

Target: Aβ42 (Homo sapiens, UniProt P05067)
Assay: Aβ42 aggregation with oxidized or reduced BRI polypeptides (native gel/western blot, ELISA-based assay)
Type: biochemical
Details: oxidized form (no DTT), 2 μM polypeptide, 1.5 μM Aβ42, 5 hours at 37° C.
Procedure: FIG. 10. […] BRI polypeptides in DMSO were diluted into 150 mM NaCl, 20 mM Tris-HCl, pH7.4 (TBS) at a final concentration of 2 μM in the absence (OX) or presence (RED) of 2 mM DTT. Mixtures were incubated for 10 minutes at room temperature and then chilled to 0° C. A control samples lacking any BRI polypeptide were prepared identically using DMSO alone. Aβ42 in DMSO then was added to a final concentration of 1.5 μM, and the mixtures divided into two aliquots. One aliquot was incubated for 5 hours at 0° C., and the other was incubated at 37° C. to induce Aβ42 aggregation. At the end of the incubation, all samples were returned to 0° C. to stop further aggregation prior to analysis. Aggregation was assessed either by native gel electrophoresis followed by western blotting (panel A) or by the ELISA-based assay (panel B).

Chain of Aβ42 (P05067 672-713 limits assumed): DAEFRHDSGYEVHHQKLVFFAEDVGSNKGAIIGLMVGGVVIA

Row | Substance | Aβ42 aggregation in vitro
1 | Bri25: C-terminal fragment of BRI3 (ITM2C), GAICNCNAIRHFENTFVVETLICGVV (SEQ ID NO: 6) | inhibit Aβ42 aggregation
2 | Bri24: C-terminal fragment of BRI1 (ITM2A), AIDKCWKIRHFPNEFIVETICICQD (SEQ ID NO: 5) | inhibit Aβ42 aggregation
